One experiment concerns the target HLA-C*14:02. In words: IEDB peptide-MHC binding, purified MHC/direct/fluorescence; filed as Kd, often an IC50 or EC50 that approximates it; ≥ and ≤ were set here for values at or beyond the usual limits of such assays. The conditions noted are these: source organism: Homo sapiens.
The target in a further experiment is HLA-A*24:02. In words: IEDB peptide-MHC binding, purified MHC/competitive/fluorescence; ≥ and ≤ were set here for values at or beyond the usual limits of such assays.
Experiment [1] deals with HLA-A*31:01. Described as above.
The target in experiment [2] is HLA-B*08:01. Described as above.
For a further experiment, the target named is HLA-B*51:01. The description is as above.
Experiment [3] has as its target HLA-A*01:01. Described as above.
Experiment [4] deals with HLA-A*68:02. Described as above.
Experiment [5] concerns the target HLA-B*18:01. The description is as above.
The target in a further experiment is HLA-A*25:01. The experiment is described as above.
The next experiment addresses HLA-B*35:01. The description is as above.
The target in a further experiment is HLA-B*37:01. The description is as above.
For the next experiment, the target named is HLA-A*29:02. The description is as above.
Another experiment concerns the target HLA-B*53:01. The experiment is described as above.
Experiment [6] has as its target HLA-A*11:01. The description is as above.
Another experiment deals with HLA-B*40:02. The experiment is described as above.
A further experiment has as its target HLA-B*14:02. Described as above.
The next experiment concerns the target HLA-B*44:03. The experiment is described as above.
Experiment [7] deals with HLA-B*58:01. The description is as above.
In experiment [8] the target is HLA-A*02:01. Described as above.
The target in experiment [9] is HLA-B*07:02. The experiment is described as above.
The target of experiment [10] is HLA-A*03:01. Described as above.
In experiment [11] the target is HLA-A*31:01. In words: IEDB peptide-MHC binding, purified MHC/direct/fluorescence; filed as Kd, often an IC50 or EC50 that approximates it; ≥ and ≤ were set here for values at or beyond the usual limits of such assays. The following applies: source organism: Yersinia pestis.
A further experiment deals with HLA-B*27:05. The experiment is described as above. The following applies: source organism: Yersinia pestis.
In experiment [12] the target is HLA-B*08:01. Described as above. The conditions noted are these: source organism: Yersinia enterocolitica subsp. enterocolitica 8081.
For experiment [13], the target named is HLA-A*01:01. Described as above. The conditions noted are these: source organism: Yersinia pestis.
The target of the next experiment is HLA-A*26:03. The experiment is described as above. The following applies: source organism: Yersinia enterocolitica subsp. enterocolitica 8081.
The target in the next experiment is HLA-B*40:01. Described as above. The conditions noted are these: source organism: Yersinia pestis.
For experiment [14], the target named is HLA-A*68:02. The experiment is described as above. The following applies: source organism: Yersinia pestis.
Experiment [15] concerns the target HLA-B*18:01. The experiment is described as above. The following applies: source organism: Yersinia pestis.
A further experiment addresses HLA-B*57:01. The description is as above. The conditions noted are these: source organism: Yersinia pestis.
Another experiment deals with HLA-B*48:01. Described as above. The following applies: source organism: Yersinia pestis.
The target in the next experiment is HLA-B*08:03. The experiment is described as above. The following applies: source organism: Yersinia enterocolitica subsp. enterocolitica 8081.
The target of a further experiment is HLA-B*08:02. Described as above. The following applies: source organism: Yersinia enterocolitica subsp. enterocolitica 8081.
Experiment [16] has as its target HLA-A*11:01. The description is as above. The conditions noted are these: source organism: Yersinia pestis.
Another experiment addresses HLA-A*26:01. Described as above. The following applies: source organism: Yersinia enterocolitica subsp. enterocolitica 8081.
The target of the next experiment is HLA-B*46:01. The description is as above. The conditions noted are these: source organism: Yersinia pestis.
The target of experiment [17] is HLA-B*58:01. Described as above. The conditions noted are these: source organism: Yersinia pestis.
For a further experiment, the target named is HLA-B*15:17. The experiment is described as above. The conditions noted are these: source organism: Yersinia pestis.
The target of experiment [18] is HLA-A*02:01. The description is as above. The following applies: source organism: Yersinia pestis.
Experiment [19] deals with HLA-B*07:02. The experiment is described as above. The following applies: source organism: Yersinia pestis.
The target of another experiment is HLA-B*15:01. The description is as above. The following applies: source organism: Yersinia pestis.
The target of experiment [20] is HLA-A*03:01. The description is as above. The following applies: source organism: Yersinia pestis.
Where [21] appears, read: source organism: Tarsius lariang.

Usually Kd stands for the concentration at which binding is half-saturated. A lower Kd goes with tighter binding. A word on the IC50: it is the concentration that gives 50% inhibition. High values mean a need for much substance, low ones inhibition by little substance. SYMMDDLELI returned a dissociation constant Kd with HLA-C*14:02 of 0.575 µM. Besides, the IC50 was 0.0113 µM in the experiment with HLA-A*24:02 (source organism: Homo sapiens); at least 20 µM with HLA-A*31:01 [1] (source organism: Homo sapiens); at least 20 µM in the experiment with HLA-B*08:01 [2] (source organism: Homo sapiens); at least 20 µM in the experiment with HLA-B*51:01 (source organism: Homo sapiens); at least 20 µM with HLA-A*01:01 [3] (source organism: Homo sapiens); 0.777 µM in the experiment with HLA-A*68:02 [4] (source organism: Homo sapiens). Also, the IC50 was at least 20 µM with HLA-B*18:01 [5] (source organism: Homo sapiens); at least 20 µM with HLA-A*25:01 (source organism: Homo sapiens); at least 20 µM in the experiment with HLA-B*35:01 (source organism: Homo sapiens); at least 20 µM with HLA-B*37:01 (source organism: Homo sapiens); 0.824 µM in the experiment with HLA-A*29:02 (source organism: Homo sapiens); at least 20 µM with HLA-B*53:01 (source organism: Homo sapiens). The IC50 in the experiment with HLA-A*11:01 [6] (source organism: Homo sapiens) was at least 20 µM; with HLA-B*40:02 (source organism: Homo sapiens) it was at least 20 µM; with HLA-B*14:02 (source organism: Homo sapiens) it was at least 20 µM; in the experiment with HLA-B*44:03 (source organism: Homo sapiens) it was at least 20 µM; in the experiment with HLA-B*58:01 [7] (source organism: Homo sapiens) it was at least 20 µM; with HLA-A*02:01 [8] (source organism: Homo sapiens), 0.131 µM. Besides, the concentration for half-maximal inhibition (IC50) with HLA-B*07:02 [9] (source organism: Homo sapiens) and with HLA-A*03:01 [10] (source organism: Homo sapiens) was at least 20 µM in each case.
On to SDDQLRLLK, for which the Kd in the experiment with HLA-A*31:01 [11], with HLA-B*27:05, with HLA-B*08:01 [12], with HLA-A*01:01 [13], in the experiment with HLA-A*26:03 and in the experiment with HLA-B*40:01 was at least 20 µM throughout. In addition, the Kd in the experiment with HLA-A*68:02 [14], with HLA-B*18:01 [15], with HLA-B*57:01, in the experiment with HLA-B*48:01, with HLA-B*08:03 and with HLA-B*08:02 was at least 20 µM throughout. For the same sequence, the Kd with HLA-A*11:01 [16] was 0.407 µM; with HLA-A*26:01, at least 20 µM; with HLA-B*46:01 it was at least 20 µM; with HLA-B*58:01 [17], at least 20 µM; with HLA-B*15:17 it was at least 20 µM; with HLA-A*02:01 [18], at least 20 µM. Moreover, the Kd in the experiment with HLA-B*07:02 [19], in the experiment with HLA-B*15:01 and in the experiment with HLA-A*03:01 [20] was at least 20 µM each time.
For TEAEKWPFF, the IC50 in the experiment with HLA-A*24:02 (setting [21]) was 0.57 µM; with HLA-A*31:01 [1] (setting [21]), at least 20 µM; with HLA-B*08:01 [2] (setting [21]), at least 20 µM; with HLA-B*51:01 (setting [21]) it was at least 20 µM; in the experiment with HLA-A*01:01 [3] (setting [21]), at least 20 µM; in the experiment with HLA-A*68:02 [4] (setting [21]), at least 20 µM. Moreover, the IC50 in the experiment with HLA-B*18:01 [5] (setting [21]) was 0.0432 µM; in the experiment with HLA-A*25:01 (setting [21]), at least 20 µM; with HLA-B*35:01 (setting [21]), at least 20 µM; with HLA-B*37:01 (setting [21]), 0.394 µM; with HLA-A*29:02 (setting [21]), at least 20 µM; in the experiment with HLA-B*53:01 (setting [21]), at least 20 µM. The IC50 with HLA-A*11:01 [6] (setting [21]) is at least 20 µM; with HLA-B*40:02 (setting [21]), 0.0405 µM; in the experiment with HLA-B*14:02 (setting [21]) it was at least 20 µM; with HLA-B*44:03 (setting [21]), at least 20 µM; with HLA-B*58:01 [7] (setting [21]), at least 20 µM; with HLA-A*02:01 [8] (setting [21]), at least 20 µM. Also, the IC50 with HLA-B*07:02 [9] (setting [21]) and with HLA-A*03:01 [10] (setting [21]) was at least 20 µM throughout.

Values taken from the Immune Epitope Database (IEDB).
